Laboratory results taken from paper PMC3136475.

Columns and labels:
[1] = biological target: S453P C-terminal peptide (CTP), His6-tagged, released from the chain by trypsin cleavage of S453P proaerolysin (Aeromonas hydrophila); assay: SPR; His-tagged proaerolysin bound to nickel charged NTA sensor chip via the His tag at the C-terminus of the CTP; trypsin added and release of the mature toxin followed; apparent Koff, by the authors only comparative
[2] = biological target: S453P C-terminal peptide (CTP), His6-tagged, released from the chain by trypsin cleavage of S453P proaerolysin (Aeromonas hydrophila); assay: pull-down; proaerolysin processed with trypsin agarose beads at pH 8, incubated with His-bind resin preloaded with nickel (held by the His6 tag of the CTP), 4°C, 30 min, extensively washed; SDS-PAGE and Coomassie staining

Substance: aerolysin (mature toxin obtained by trypsin cleavage of proaerolysin) (from UniProt P09167 24-445) (natural protein)
- koff [1]: 0.026 s⁻¹
- percent of the total aerolysin in the unbound fraction (released from the bead-bound CTP) [2]: 40%
